# Source: patent US20220341931A1
# Molecular target: Influenza A [A/Hawaii/70/2019 (H1N1)pdm09-like virus] Hemagglutinin (HA), His-Tag (Native Antigen Co (Influenza A [A/Hawaii/70/2019 (H1N1)pdm09-like virus]))
substance,measurement,value
"SARS-CoV-2 (2019-nCoV) Nucleocapsid Antibody, Rabbit MAb (Sino Biological Cat: 40143-R019)",barcode sequence counts (FLU A),2000 counts
